In assay [1] the target is T1, E. coli (K12) FimH, wild type, on the surface of E. coli (Escherichia coli (K12), UniProt P08191 22-300).
T1 construct: whole, on cells; also called FimH-WT; fimbrial protein H
In words: immunofluorescence microscopy of E. coli +/- FimH exposed to recombinant HMGB1, stained with anti-HMGB1 antibody.

Assay [2] addresses T1, E. coli (K12) FimH, wild type, on the …. In words: flow cytometry of FimH+ or FimH- E. coli (K12) treated with Box A protein and stained with anti-HIS antibody.

T1 sequence (P08191 22-300): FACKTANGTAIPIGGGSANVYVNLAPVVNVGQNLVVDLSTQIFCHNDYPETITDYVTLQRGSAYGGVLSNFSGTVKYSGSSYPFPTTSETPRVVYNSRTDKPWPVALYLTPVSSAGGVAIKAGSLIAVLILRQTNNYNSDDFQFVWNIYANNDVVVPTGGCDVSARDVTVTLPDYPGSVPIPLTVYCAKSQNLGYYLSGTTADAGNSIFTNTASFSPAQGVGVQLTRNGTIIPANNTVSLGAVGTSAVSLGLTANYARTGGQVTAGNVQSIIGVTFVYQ

B1: High mobility group box 1 (HMGB1), recombinant human HMGB1 produced in mammalian cells (other)
chain: MGKGDPKKPRGKMSSYAFFVQTCREEHKKKHPDASVNFSEFSKKCSERWKTMSAKEKGKFEDMAKADKARYEREMKTYIPPKGETKKKFKDPNAPKRPPSAFFLFCSEYRPKIKGEHPGLSIGDVAKKLGEMWNNTAADDKQPYEKKAAKLKEKYEKDIAAYRAKGKPDAAKKGVVKAEKSKKKKEEEEDEEDEEDEEEEEDEEDEDEEEDDDDE
notes: also called recombinant HMGB1; full-length HMGB1 protein
In the case of B1, the binding result in assay [1] was “binds”.

B2: Box A protein, truncation mutant composed of aa 2-97 of HMGB1 (other)
chain: GKGDPKKPRGKMSSYAFFVQTCREEHKKKHPDASVNFSEFSKKCSERWKTMSAKEKGKFEDMAKADKARYEREMKTYIPPKGETKKKFKDPNAPKR
notes: The position of the His tag is unknown; also called Box A from HMGB1; not shown: His tag implied by detection with anti-HIS antibody
In the case of B2, the binding result in assay [2] is “binds”.
